Assay results from patent US20110263451A1, “BIOLOGICAL MARKERS PREDICTIVE OF RHEUMATOID ARTHRITIS RESPONSE TO LYMPHOTOXIN ANTAGONISTS” (GENENTECH, INC, priority 2008, published 2011).

How the values were obtained:
[1] = test system: solLTαβ; assay: solLTαβ levels in serum of EAE mice (murine LTαβ ECLA); assay type: in vivo, mouse (SJL/J); settings: 6 mg/kg s.c. three times a week, FIG. 3
Experimental: Soluble mouse LTαβ was measured using streptavidin coated 96-Well Microtiter plates (Meso Scale Discovery). Wells were then blocked with 150 uL of PBS containing 5% bovine serum albumin for 1-2 hours. Twenty-five uL per well of 1 μg/ml murine LTβR-Fc-biotin (R&D Systems) diluted in PBS/0.05% Tween® was then incubated with the blocked plate for 30 minutes. The wells were washed 6× with PBS containing 0.05% Tween®-20 (PBS/Tween®) and a titration curve of recombinant mouse LTα1β2 (R&D Systems), controls and unknown test samples diluted in high salt assay diluent (PBS, 0.5% BSA, 0.05% Tween® 20, 10 ppm Proclin, 5 mM EDTA, 0.2% BGG, 0.25% CHAPS+3.5 mM NaCl pH 7.4) were added at 25 μl/well and incubated for 2 hours. […] The plate was washed with wash buffer 6× and 150 μl/well of Read Buffer T (Meso Scale Discovery) diluted 1:2 in H20 was added to the plate. The plate was immediately read on an MA6000 SECTOR™ Imager (Meso Scale Discovery). […]
Female SJL/J mice were immunized intradermally at the base of the tail with 200 μl of emulsion containing 150 μg of peptide PLP 139-151 in 100 μl of PBS and 100 μl of CFA. […] Animals were evaluated daily for clinical signs using the same grading system as for the transgenic mice.

[2] = test system: solLTαβ; assay: solLTαβ levels in serum of CIA mice (murine LTαβ ECLA); assay type: in vivo, mouse (DBA-1J); settings: 6 mg/kg s.c. three times weekly, treated for 11 days, FIG. 4A
Experimental: Soluble mouse LTαβ was measured using streptavidin coated 96-Well Microtiter plates (Meso Scale Discovery). Wells were then blocked with 150 uL of PBS containing 5% bovine serum albumin for 1-2 hours. Twenty-five uL per well of 1 μg/ml murine LTβR-Fc-biotin (R&D Systems) diluted in PBS/0.05% Tween® was then incubated with the blocked plate for 30 minutes. The wells were washed 6× with PBS containing 0.05% Tween®-20 (PBS/Tween®) and a titration curve of recombinant mouse LTα1β2 (R&D Systems), controls and unknown test samples diluted in high salt assay diluent (PBS, 0.5% BSA, 0.05% Tween® 20, 10 ppm Proclin, 5 mM EDTA, 0.2% BGG, 0.25% CHAPS+3.5 mM NaCl pH 7.4) were added at 25 μl/well and incubated for 2 hours. The wells were washed 6× with PBS/Tween® and an anti-LTα monoclonal antibody (N3EV) (Genentech) labeled with SULFO-TAG® NHS (Meso Scale Discovery) was diluted to 3 ug/ml in assay diluent and added to the wells at 25 μl/well for 1 hour. The plate was washed with wash buffer 6× and 150 μl/well of Read Buffer T (Meso Scale Discovery) diluted 1:2 in H20 was added to the plate. The plate was immediately read on an MA6000 SECTOR™ Imager (Meso Scale Discovery). A weighted 4-parameter fit curve was plotted using XLFit (Guildford, UK) from the resulting standard curve values and unknown concentrations were extrapolated. […]

B1: muLTβR-Fc: recombinant murine LTβ receptor conjugated to an immunoglobulin Fc region (murine IgG2a Fc) (protein)
chain: QLVPPYRIENQTCWDQDKEYYEPMHDVCCSRCPPGEFVFAVCSRSQDTVCKTCPHNSYNEHWNHLSTCQLCRPCDIVLGFEEVAPCTSDRKAECRCQPGMSCVYLDNECVHCEEERLVLCQPGTEAEVTDEIMDTDVNCVPCKPGHFQNTSSPRARCQPHTRCEIQGLVEAAPGTSYSDTICKNPPEPGAML
modifications: left off: a dimerising Fc or GST
solLTαβ levels in serum [1]: Elevated | solLTαβ levels in serum [2]: Elevated
